In paper PMC9917443 one finds Kd and stoichiometry N data, which are given here for two molecules.

The target of this assay is purified recombinant SD1/2 protein. Briefly: ITC; peptide (300 μM in the syringe) injected into SD1/2 protein (30 μM) in the cell; 25°C; 20 mM NaPi (pH 6.8), 50 mM NaCl, 0.5 mM EDTA; one-site binding model.

B1: sc-APP17 (peptide)
peptide: Ac-DWGADTVSGDGYDAWDD-NH2
As for B1, the Kd was above 300000 nM.

B2: APP17 (peptide)
peptide: Ac-DDSDVWWGGADTDYADG-NH2
As to B2, the Kd was found to be 543 nM and the stoichiometry N amounted to 1.05.
